# Data taken from article PMC5758831, “A proline deletion in IFNAR1 impairs IFN-signaling and underlies increased resistance to tuberculosis in humans” (Nature Communications, 2018).
# B1: human IFN-β (ReBif) (ligand, UniProt P01574 22-187, looked up)
# chain: MSYNLLGFLQRSSNFQCQKLLWQLNGRLEYCLKDRMNFDIPEEIKQLQQFQKEDAALTIYEMLQNIFAIFRQDSSSTGWNETIVENLLANVYHQINHLKTVLEEKLEKEDFTRGKLMSSLHLKRYYGRILHYLKAKEYSHCAWTIVRVEILRNFYFINRLTGYLRN
# notes: interferon beta, human; the drug product ReBif; also called hIFN-β; source: ReBif (hIFN-β), dialyzed into TBS
# Assays:
# [1] = target: T1, hIFNAR1-extracellular domain (ECD) (human, UniProt P17181 28-424); assay: SPR; ProteOn XPR36, HTG chip; His-tagged hIFNAR1-ECD or hIFNAR1-ECD-Del (25 µg/ml in TBS) immobilised on the nickel activated chip; ReBif (hIFN-β) in TBS as analyte at various concentrations; TBS running buffer; Langmuir binding model; in the absence of IFNAR2; conditions: both partners purified
# T1 construct: interferon alpha and beta receptor subunit 1 (IFNAR1), human, extracellular domain, amino acids 28-424 of hIFNAR1 (GenBank CAA42992.1); The cloning paragraph says N-terminal 6xHis tag (modified pFastBac-1); the SPR paragraph says capture by C-terminal His-tags; The reverse primer encodes ...PGNTSK-stop; also called hIFNAR1-ECD; WT IFNAR1-ECD; not shown: 6xHis, N-terminal, kept
# T1 sequence (looked up): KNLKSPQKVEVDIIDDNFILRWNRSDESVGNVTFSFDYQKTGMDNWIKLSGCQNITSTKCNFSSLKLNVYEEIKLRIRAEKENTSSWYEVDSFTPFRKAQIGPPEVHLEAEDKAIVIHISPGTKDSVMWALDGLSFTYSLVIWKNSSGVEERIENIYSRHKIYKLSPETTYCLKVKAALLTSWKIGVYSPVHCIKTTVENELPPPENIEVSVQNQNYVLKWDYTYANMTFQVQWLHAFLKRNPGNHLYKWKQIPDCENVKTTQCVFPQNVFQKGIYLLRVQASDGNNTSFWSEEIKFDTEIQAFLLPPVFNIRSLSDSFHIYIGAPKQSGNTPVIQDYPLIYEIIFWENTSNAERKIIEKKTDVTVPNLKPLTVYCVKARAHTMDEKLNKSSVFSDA
# [2] = target: T2, hIFNAR1-ECD-Del (extracellular domain of human IFNAR1 with the Pro335 deletion) (human, UniProt P17181 28-424, delete P335); assay: as above; conditions: both partners purified
# T2 construct: Naturally occurring variant, made by site-directed mutagenesis of hIFNAR1-ECD; N-terminal 6xHis by the cloning paragraph, C-terminal His-tag by the SPR paragraph; also called IFNAR1Del; not shown: 6xHis, N-terminal, kept
# T2 sequence (looked up): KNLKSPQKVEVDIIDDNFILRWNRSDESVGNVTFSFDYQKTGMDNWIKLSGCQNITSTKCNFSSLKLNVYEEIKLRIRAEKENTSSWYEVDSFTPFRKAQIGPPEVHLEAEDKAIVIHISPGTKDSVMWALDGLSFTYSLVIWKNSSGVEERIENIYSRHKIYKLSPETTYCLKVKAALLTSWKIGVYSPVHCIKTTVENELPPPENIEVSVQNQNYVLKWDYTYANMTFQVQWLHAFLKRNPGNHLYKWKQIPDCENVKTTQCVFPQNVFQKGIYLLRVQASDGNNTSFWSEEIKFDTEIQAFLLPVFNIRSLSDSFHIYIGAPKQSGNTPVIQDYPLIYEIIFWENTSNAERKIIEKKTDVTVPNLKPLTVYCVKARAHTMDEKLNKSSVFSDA
binder,measurement,setting,value
B1,Kd,[1],0.0158 µM
same,Kd,[2],0.0281 µM
